Patent publication US20070065429A1 (Biogen, published 2007)

B1: NgR expressed in COS cells (receptor)
chain: CPGACVCYNEPKVTTSCPQQGLQAVPVGIPAASQRIFLHGNRISHVPAASFRACRNLTILWLHSNVLARIDAAAFTGLALLEQLDLSDNAQLRSVDPATFHGLGRLHTLHLDRCGLQELGPGLFRGLAALQYLYLQDNALQALPDDTFRDLGNLTHLFLHGNRISSVPERAFRGLHSLDRLLLHQNRVAHVHPHAFRDLGRLMTLYLFANNLSALPTEALAPLRALQYLRLNDNPWVCDCRARPLWAWLQKFRGSSSEVPCSLPQRLAGRDLKRLAANDLQGCAVATGPYHPIWTGRATDEEPLGLPKCCQPDAADKASVLEPGRPASAGNALKGRVPPGDSPPGNGSGPRHINDSPFGTLPGSAEPPLTAVRPEGSEPPGFPTSGPRRRPGCSRKNRTRSHCRLGQAGSGGGGTGDSEGS
B2: human NgR-1 expressed on human SKNMC cells (receptor, UniProt Q9BZR6 27-447, looked up)
chain: B1 chain
notes: whole, on cells

Key:
AP-Aβ = target: T1, AP-Aβ (UniProt P05187 23-511; P05067 672-699); experiment: AP fusion binding to COS cells expressing NgR, saturation
T1 construct: Fusion of alkaline phosphatase and Aβ(1-28); The range 1-28 is Aβ numbering; also called AP-Aβ(1-28); soluble AP-Aβ(1-28)
T1 sequence (P05187 other isoform, or with tags, fused parts or gaps): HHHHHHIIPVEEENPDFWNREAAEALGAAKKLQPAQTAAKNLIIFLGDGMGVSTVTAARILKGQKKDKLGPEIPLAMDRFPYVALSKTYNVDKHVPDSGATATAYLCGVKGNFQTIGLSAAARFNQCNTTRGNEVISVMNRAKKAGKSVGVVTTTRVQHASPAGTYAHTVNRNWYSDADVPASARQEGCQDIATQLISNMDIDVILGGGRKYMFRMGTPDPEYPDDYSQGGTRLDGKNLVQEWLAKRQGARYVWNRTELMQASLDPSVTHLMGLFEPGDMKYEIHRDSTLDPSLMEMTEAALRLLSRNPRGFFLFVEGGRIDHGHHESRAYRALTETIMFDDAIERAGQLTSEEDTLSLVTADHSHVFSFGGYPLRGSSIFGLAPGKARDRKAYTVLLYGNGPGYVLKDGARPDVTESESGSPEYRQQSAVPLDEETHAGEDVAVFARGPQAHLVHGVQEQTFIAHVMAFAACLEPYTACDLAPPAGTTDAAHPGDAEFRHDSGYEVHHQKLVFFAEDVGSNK

Fluo-Aβ42 = target: T2, Fluo-Aβ42 (UniProt P05067 672-713, 'Fluo' label (kind and position not stated)); experiment: Fluo-Aβ42 incubated 2 h at 4° C. with SKNMC cells expressing human NgR-1
T2 construct: also called fibrillogenic Aβ42 peptide

Row | Binder | Kd (AP-Aβ) [nM] | binding result (Fluo-Aβ42)
1 | B1 | 60 | –
2 | B2 | – | binds
